According to US11370846B2, “Compositions and methods to regulate Renalase in the treatment of cancer” (Yale University, priority 2014, dated 2022):
Where two headings read alike, the source gives them in different places.

Legend:
[1] = tested on: renalase-1 and renalase-2; assay: Renalase isoform specificity of anti-renalase antibodies; format: binding, human; conditions: renalase-1 vs renalase-2
Protocol: Peptides were used as immunogens. The peptides generated ranged from 9 to 21 amino acids and corresponded to regions of the renalase-1 and renalase-2 proteins. […] Each peptide was conjugated to the adjuvant KLH via the cysteine and used to immunize 6 rabbits. Antiserum collected from each animal was screened for anti-renalase antibody titer by ELISA assay using both the relevant peptide (BSA-conjugate) or full length renalase-1 or 2. The antisera were also tested for their ability to detect endogenous renalase in tissue lysates by western blot. Using these screening criteria the animals producing antibodies with the preferred characteristics were selected. In some examples and for some peptides, several animals produced antibodies with the required specificity. […] Polyclonal antibodies raised against all of the peptides were generated by purification of total IgG from terminal bleeds by protein G chromatography followed by further purification on peptide affinity chromatography. Further and using standard procedures, lymphocytes from the spleens of selected animals were fused to myeloma cells for hybridoma generation. The hybridoma supernatants were screened for binding to both the peptides against which they were raised and secondarily screened against whole renalase protein. Selected hybridomas were sub-cloned and expanded for antibody purification. The monoclonal antibodies were purified from conditioned hybridoma culture supernatant by protein A affinity chromatography.

melanoma cells = assay: Melanoma cell lines in culture, viability/growth; format: cell-based, human
Protocol: FIG. 19A through FIG. 19D are a series of images and charts showing that inhibition of RNLS signaling is cytotoxic to melanoma cells in vitro. […] FIG. 19B comprises two charts depicting relative cell viability: Left panel: Cells were treated with indicated antibodies for 72 hrs and cell viability was determined using WST-1; m28-RNLS (also known as 1D-28-4), m37-RNLS (also known as 1D-37-10): monoclonal antibodies raised against RNLS peptide RP220; Right panel: A375.S2 cells treated with increasing doses of m28-RNLS for 72 hrs and cell viability determined with a WST-1 assay; n=6, * indicates p<0.05 and ** indicates p<0.005. FIG. 19C comprises representative photos of A375.S2, SkMe128, and SkMe15 after 72 hrs incubation with either control rabbit IgG or m28-RNLS. FIG. 19D is a chart depicting relative cell viability, comprising amino acid (AA) sequence of RNLS peptide antagonist (RP220A).
For additional studies, cell viability was determined using WST-1 reagent (Roche Diagnostics, Indianapolis, Ind., USA) according to the manufacturers' instruction. Absorbances were read using a microplate reader (Power Waves XS, BioTek Instruments, Winooski, Vt., USA).

PDACC = PDACC growth with anti-RNLS antibodies, WST-1; format: cell-based, human; conditions: 72 hrs
Protocol: FIG. 25A through FIG. 25E are a series of charts and images showing that inhibition of RNLS signaling is cytotoxic to cancer cells in vitro and in vivo. FIG. 25A is a chart showing relative cell viability following transient transfection of Panc1 cells using a RNLS-specific siRNA, or a non-specific control siRNA, and cell viability assayed 96 h later using the WST-1 reagent; n=6, ** indicates p<0.001. FIG. 25B is a chart showing relative cell viability when cells were treated with indicated antibodies for 72 hrs and cell viability determined using WST-1; m28-RNLS and m37-RNLS: monoclonal antibodies raised against RNLS peptide RP220, ab31291: Abcam polyclonal antibody raised against a partial sequence of RP-220; n=6, * indicates p<0.005. […] FIG. 25D is a chart showing tumor volume increase after athymic nude mice received subcutaneous injection of Panc1 cells transduced with RNLS shRNA (sh-RNLS) or control (sh-Control); tumor volume measured every […] for up to 30 days, n=6 each; * indicates p<0.05. FIG. 25E is chart showing tumor volume increase after nude mice were xenografted with BxPC3; tumor volume measured prior to treatment every 3-4 days with 2 mg/kg of either rabbit IgG as a negative control or with m28-RNLS, n=10, * indicates p<0.05.

Molecule | renalase isoform specificity [1] | melanoma cell growth/viability in culture (melanoma cells) | melanoma cell growth/viability in culture (melanoma cells; listed as D-37-10) | melanoma cell growth/viability in culture (melanoma cells; listed as m37-RNLS) | PDACC growth (PDACC)
3A-5-2: anti-renalase monoclonal specific for renalase-2 (antigen 3A); heavy chain SEQ ID NO:41, light chain SEQ ID NO:42 (antibody, oryctolagus cuniculus) heavy: METGLRWLLLVAVLKGVQCQSLEESGGRLVTPGTPLTLTCTVSGFSLNNYHIYWVRQAPGKGLEYIGIIFNGGTYYARWTKGRFTISKTSTTVDLKMTSLTTEDTATYFCARGDGIWGPGTLVTVSLGQPKAPSVFPLAPCCGDTPSSTVTLGCLVKGYLPEPVTVTWNSGTLTNGVRTFPSVRQSSGLYSLSSVVSVTSSSQPVTCNVAHPATNTKVDKTVAPSTCSKPTCPPPELLGGPSVFIFPPKPKDTLMISRTPEVTCVVVDVSQDDPEVQFTWYINNEQVRTARPPLREQQFNSTIRVVSTLPIAHQDWLRGKEFKCKVHNKALPAPIEKTISKARGQPLEPKVYTMGPPREELSSRSVSLTCMINGFYPSDISVEWEKNGKAEDNYKTTPAVLDSDGSYFLYSKLSVPTSEWQRGDVFTCSVMHEALHNHYTQKSISRSPGK light: MDTRAPTQLLGLLLLWLPGATFAQVLTQTPASVSAAVGGTVTINCQASQSVFNNNYLAWYQQKPGQPPKRLIYSASTLASGVSSRFKGSGSGTEFTLTMSGVECDDAATYYCAGSFDCNSGDCVAFGGGTEVVVKGDPVAPTVLIFPPAADQVATGTVTIVCVANKYFPDVTVTWEVDGTTQTTGIENSKTPQNSADCTYNLSSTLTLTSTQYNSHKEYTCKVTQGTTSVVQSFNRGDC | specific for renalase-2 | – | – | – | –
1D-37-10: rabbit anti-renalase monoclonal raised against peptide RP-220 (antigen 1D); heavy chain SEQ ID NO:17, light chain SEQ ID NO:18 (antibody, oryctolagus cuniculus) heavy: METGLRWLLLVAVLKGVQCQSVEESGGRLVTPGGSLTLTCTVSGFSLSDYAIIWVRQAPGKGLEYIAIIGSSGDTFYATWAKGRFTISKTSTTVDLKMTSLTAADTATYFCAPRYAGTTDYHDAFDPWGPGTLVTVSSGQPKAPSVFPLAPCCGDTPSSTVTLGCLVKGYLPEPVTVTWNSGTLTNGVRTFPSVRQSSGLYSLSSVVSVTSSSQPVTCNVAHPATNTKVDKTVAPSTCSKPTCPPPELLGGPSVFIFPPKPKDTLMISRTPEVTCVVVDVSQDDPEVQFTWYINNEQVRTARPPLREQQFNSTIRVVSTLPIAHQDWLRGKEFKCKVHNKALPAPIEKTISKARGQPLEPKVYTMGPPREELSSRSVSLTCMINGFYPSDISVEWEKNGKAEDNYKTTPAVLDSDGSYFLYSKLSVPTSEWQRGDVFTCSVMHEALHNHYTQKSISRSPGK light: MDTRAPTQLLGLLLLWLPGARCAEVVMTQTPASMEAPMGGTVTIKCQASQNIYNYLSWYQQKPGQPPKLLVYKASTLTSGVPSRFKGSGSGTQFTLTISDLECADAATYYCQINYSIYNHYNIIFGGGTEVVVKGDPVAPTVLIFPPSADLVATGTVTIVCVANKYFPDVTVTWEVDGTTQTTGIENSKTPQNSADCTYNLSSTLTLTSTQYNSHKEYTCKVTQGTTSVVQSFNRGDC | recognize renalase-1 and renalase-2 | inhibit melanoma cells in culture | inhibit melanoma cell growth | decreased the viability of all (total of 5) melanoma cell lines tested | inhibitory effects
1F-26-1: anti-renalase monoclonal specific for renalase-1 (antigen 1F); heavy chain SEQ ID NO:25, light chain SEQ ID NO:26 (antibody, oryctolagus cuniculus) heavy: METGLRWLLLVAVLKGVQCQSVKESEGGLFKPTDTLTLTCTVSGFSLSSYGVTWVRQAPGNGLEWIGLIGDRGTTFYASWAKSRSTITRNTNLNTVTLKMTRLTAADTATYFCARGSGYGARIWGPGTLVTVSSWQPKAPSVFPLAPCCGDTPSSTVTLGCLVKGYLPEPVTVTWNSGTLTNGVRTFPSVRQSSGLYSLSSVVSVTSSSQPVTCNVAHPATNTKVDKTVAPSTCSKPTCPPPELLGGPSVFIFPPKPKDTLMISRTPEVTCVVVDVSQDDPEVQFTWYINNEQVRTARPPLREQQFNSTIRVVSTLPIAHQDWLRGKEFKCKVHNKALPAPIEKTISKARGQPLEPKVYTMGPPREELSSRSVSLTCMINGFYPSDISVEWEKNGKAEDNYKTTPAVLDSDGSYFLYSKLSVPTSEWQRGDVFTCSVMHEALHNHYTQKSISRSPGK light: MDTRAPTQLLGLLLLWLPGATFAQVLTQTPSPVSAAVGGTVTINCQSSQSVYKNNYLAWYQQKPGQPPKLLIYETSKLASGVPPRFSGSGSGTQFTLTISSVQCDDAATYYCQGGYSGVDFMAFGGGTEVVVKGDPVAPTVLIFPPSADLVATGTVTIVCVANKYFPDVTVTWEVDGTTQTTGIENSKTPQNSADCTYNLSSTLTLTSTQYNSHKEYTCKVTQGTTSVVQSFNRGDC | specific for renalase-1 | – | – | – | –
1F-42-7: anti-renalase monoclonal specific for renalase-1 (antigen 1F); heavy chain SEQ ID NO:33, light chain SEQ ID NO:34 (antibody, oryctolagus cuniculus) heavy: METGLRWLLLVAVLKGVQCQSVKESEGGLFKPTDTLTLTCTVSGFSLTTYGVTWVRQAPGNGLEWIGLIGDRGTTYYASWVNGRSTITRNTNLNTVTLKMTRLTAADTATYFCARGSGYGARIWGPGTLVTVASWQPKAPSVFPLAPCCGDTPSSTVTLGCLVKGYLPEPVTVTWNSGTLTNGVRTFPSVRQSSGLYSLSSVVSVTSSSQPVTCNVAHPATNTKVDKTVAPSTCSKPTCPPPELLGGPSVFIFPPKPKDTLMISRTPEVTCVVVDVSQDDPEVQFTWYINNEQVRTARPPLREQQFNSTIRVVSTLPIAHQDWLRGKEFKCKVHNKALPAPIEKTISKARGQPLEPKVYTMGPPREELSSRSVSLTCMINGFYPSDISVEWEKNGKAEDNYKTTPAVLDSDGSYFLYSKLSVPTSEWQRGDVFTCSVMHEALHNHYTQKSISRSPGK light: MDTRAPTQLLGLLLLWLPGATFAQVLTQTPSPMSAALGGTVTINCQSSQTVYNNNYLSWYQQKPGQPPKLLIYETSKLSSGVPPRFSGSGSGTQFTLTISSVQCDDAATYYCQGGYSGVDFMAFGGGTEVVVKGDPVAPTVLIFPPSADLVATGTVTIVCVANKYFPDVTVTWEVDGTTQTTGIENSKTPQNSADCTYNLSSTLTLTSTQYNSHKEYTCKVTQGTTSVVQSFNRGDC | specific for renalase-1 | – | – | – | –
